This data set is described as follows: soluble fraction after stress (log2 fold change); higher = more stays soluble; pooled small domains, quantitative proteomics. To be noted: stress: 75 degC.
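Note: 20 min heating vs room temperature control held 20 min.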

Turning to “HMTSTEQQIEQFIGTLVSLGGSAGNQRLLEALGWQDSIYQRVKQQLIDDGRIRPGRGRGGSVVLAE”, the “soluble fraction (log2)” value is -0.576.

As for “HMTSVAGIERFLASGAIKGMGAATAKLIVEHFGADTLNMLDMYPERLTEIKGIGPKKATAIIEGYRELS”, the “soluble fraction (log2)” value is -0.897. In the case of “HMTSVMAWRLITPIPQHGIIRSSQVQLQKHAPNSLKFLDVDSSPVGKQVKHGIAAGHWLSKDDFTE” it was -1.05; in that of “HMTTAASIGRLVRDARKQRGLTQHELASLLSTSQSAIHRIESGNQNLSLEMINRIAQALESPLIVPGG”, -0.377; in that of “HMTTIRQQAEVPLSAAGRRFDQALAEMFPAYSRSRLSGWIKAGAATLDGAPAAPRQLLRGGERVELDVELE”, -0.166. In the case of “HMTTKGGLVRDTVLNEFRDSEFTRREVELVLNGVASERTIRGALSEMVERGELTQVNFGISTRYRLNQ” it was -0.563; in that of “HMTTLEGIEKYLGSGMIRGIGPAYAGRLTKVFGEAVFDVIEQSPERLREVEGIGPKRVSRIVSGWAEQ”, -0.31.

Take “HMTTLLNHLKGTRLEAGLSQQALARLAGISRQAYSALESGSSNPSTEVALRLARALKTSVDHLFSLPE”: the “soluble fraction (log2)” value was -1.09. For “HMTTQVPYTAKLININGGSVVNFRKEPGMNTTIIRTYPVGTEVTVLETGVNWSKVEIDGVTGYVSSYFL” the value was -2.33; for “HMTTRLLTPRQRQVFDIAIREGFYDSPRRISLTELADLLGVAKSTLSVQLQRVESTIVHTFSEEIRRRS”, -2.66. In the case of “HMTTRQREALLDYLSRHPDQPLTVREIAAGVEPDGVSLSAVYRNLAELEAAGLIRRESRPGSREAVVQYV” it was -0.0192; in that of “HMTTTTTYITNTDAVNIRQQATTSSTSLGKLAKNTILSVKKKSGDWYQITYKKQTAYIHASLVDKKTAKVT”, -1.62; in that of “HMTTVDYDALRAAILQQVVSEDTTPALTTENTEIKYKFKFGLDTWVDLDGGKIAPAVSAKSYEIQISFKG”, 0.185. For “HMTTYVNGSWSGWNGSTVVKLTDGSVWRQAEYHYEYHYAYRPQARLERDELFVEGMSRGVRV” the value was -0.0587; for “HMTVADMQQKANVKRRNSNSHEAILDATVKLLGSSGYIDFSIEKVASQAGVGKQTIYRWWPSRADLVLEVW”, -0.506. As to “HMTVAEVEDRMEASRVRQALDAVGEPHRTTIALAYFTGLTHTEIAQRMGVPLGTVKSRIRDGMAKMRTHLG”, the “soluble fraction (log2)” value is -1.24. As to “HMTVDHDERRSMILEAFMRLAAREGLHAVSLRGVAAEAGISLRLVQYYFETKARLMQSGLTALET”, the “soluble fraction (log2)” value is -0.141. In the case of “HMTVKKLIINEDNSGRRIDNYLLSIFNSVPRSKIYNIIRKGEVRVNSSRIKPSYRLEEGDQVRIPPNLDYT” it was -1.05; in that of “HMTVKRNILQELLKTAFKHPEDFRPSKTFYGETGIGQKRFWALYYGHKAVTQKEYYAVADYLG”, -0.0737; in that of “HMTVLDYNENVLSKVMNAAEINDSDKEAFIAFAKDYNSDDNLYLKKEELETAAGAWNARNVE”, 0.2. In the case of “HMTVLTDEIKVILISYIKENDFKKKHGNRKMMMTAQDMYDELVEKGYKISYPTVTQYVQKYRENETT” it was -1.63; in that of “HMTVMTGSQRRKKILELMRDAKEPLSGGALGKETGVSRHVVVQDIALLRTQGYPIVATARGYIINE”, -1.32; in that of “HMTVRLSVSADGKFFWNESQVSEEELFPRLQAEAAKEPQPDLHIRGDKNVRYEFVAQAMAAAQRAGVRKI”, -0.797. In the case of “HMTVSADQTAADAVIKLINAIGTVSENSGSAISAARSGYDALTDTQKKLVTNYNKLTQAEQVFSSLPS” it was 0.336. In the case of “HMTVSGNIAGDYKDYLPQKTDVINGMTVTYRMVDDAVYLASWKHAGQNHVFLFNDPVSVERAREMI”, the “soluble fraction (log2)” value is -0.556.

Consider “HMTVSIDSLFDKFEDLQEQGLGDKTEEGQELRGLIRAFIEQEHLSVRITRSTSNQELLDMIEEAMQ”, for which the “soluble fraction (log2)” value was -1.25.

In the case of “HMTVSRRYTENEMETALKAYLATHNFISRRDMQQEFALTIYSARKWLNHFVDVGLIERIGLKNAPIYKL”, the “soluble fraction (log2)” value is -0.0893. Turning to “HMTVTKYGKKILEIVSSSRSHMTAEEIFDALRQTYPTVVLATVYNNLNRLWQDDLIRKVSVEGMPDRYD”, the “soluble fraction (log2)” value is -1.28.

“HMTVVPNIVNQPEAAGTNLLISSNLKPGNRAVQYSDTVKAGDIISQSPEPGAQATLGGKVDYVISQGPAPT”: the “soluble fraction (log2)” value was 0.174. In the case of “HMTWIAEIELRLMGNGAVTGAKIVKSTDLKDVDAAIYRAALEASPYPAPESGIGGRFTIKLKY” it was -0.037; in that of “HMTYLIKFDENGRRSDTYVAEEKTQEQVTELLEKGFVLITEEDYQLLVGNVDGKEYIRNADGTYSEYT”, 0.563. For “HMTYMWTTDGVNLRSEPNTDSAVVTVLGVGTQVRMIGEEDGWVKVSFNDQEGYIRADFLTTE”, the “soluble fraction (log2)” value was -0.198. “HMTYSAFITARNKRIAEEYSVLLDSLNISNNVIYRLGSWVVEVNVSDHSRAIDEIYSYERSGRIDKV”: the “soluble fraction (log2)” value is -3.1. With “HMTYYEGYYRKNQKGFGFVIVDGRDEDIYIDAKNMNGALNNDLVVVEELKGQNGKKTEGRVVKVLKKE”, the “soluble fraction (log2)” value was -0.17.

With “HMVADLSGVGDKDIIVDQFIYHEVLPKETIYSIVKSFNVTSEDLNKNNPFLRANGLRIGQVIRIPLKI”, the “soluble fraction (log2)” value is -1.27. Take “HMVAEPTYGRTTDVLNIRSGPSTDDERIGQLSRGAVVTILEEKDGWYRLQRGYISADYVTQISAEEASNS”: the “soluble fraction (log2)” value was -0.0612. For “HMVAEPVYGKVTEGPLNVRSAPSTDSEKVDSFSTGKVLTILETLDGWYKVEEGYVSADYVTIIDAAEAASS” the value was -0.162. In the case of “HMVAGHLSEKKGYYYAVLNYKDYTGKRKSKWVSTGLPVKGNKRRAEKILADIKRDFVPEEPKR” it was -0.96.

On to “HMVAGQDPVKRQQILDGAKRVFLGVGFDAASMNDITREAGVSKGTIYVYFGSKEELFGALIDR”, for which the “soluble fraction (log2)” value was -0.828. For the sequence “HMVAMLDASYRGVMQTISTLLAQGNTERAYDEAVNARGQMSKQQWNNLANLIWERTGQKIDSGVSYK”, the “soluble fraction (log2)” value is 0.367. “HMVDEAQSLERNVLLTVLSRIGRDSRVVLTHDIAQRDNLRVGRHDGVVAVVDRLKGHPLFAHVTL”: the “soluble fraction (log2)” value came out at 0.163. For “HMVDERMVTYINSLDKGNTPFLNELEKEALANYVPIIRREMQSFLKVLLQIKAPLRILEVGTAVGFSTILM” the value was 0.0501; for “HMVDGAHKQQAAVQALTPALKVLAAAPEGKKGQAIQALRAVLKQHGRWLDDATAQQVHEQLLAAGDAQGWQ”, 0.478. In the case of “HMVDIGQSIRVELIREGKDSHQAVGYLRDGSMVVVNHGRKLIGSTVEVEITSIVPSSAGKVIFAEYLE”, the “soluble fraction (log2)” value was -2.67. In the case of “HMVDIQTGQKVRIHTSQFAGKIGNITALNVKSAELPNGIRTATASILMQSNENVMLPVSNFDIIE” it was -0.0419. As for “HMVDIVLDILKIVAEKQPGNQFSQSILMQYQERGGLSKKQLEGLYGKAKRIPEIPQNKLATLEAIILR”, the “soluble fraction (log2)” value is -1.84. For “HMVDKNDLTAIDGIGPFLEKKLNDVGVFTYADIAGWDAAKIEEITQQISFFEGRIEKDDWVGQAQKLIDDQ” the value was -0.124.

Take “HMVDKSYIHNQQVASDTWTVQHNLGKYPAVSVADTGNNEVYGDVRHINENTVELKFSHPFSGVAFF”: the “soluble fraction (log2)” value is 0.61. With “HMVDKTMYDRYAVDDYVRVIDGPLVGTEGRIIELDRETGNVKIEAVFFGRVTTADINFALIEKVD”, the “soluble fraction (log2)” value is -0.717. For “HMVDLDIENYELEDILNLFRLQYNFVEADLKRAYRMALKLHPDKSGLDGEYFRFYMKAYKIVENIFNFRNR” the value was -1.5; for “HMVDSVIGSVGRVTVDIDNVEALGQVKLGGMEWSARSTSGDPIPAGTEVRVDRVEGVKVFVTPV”, -0.117. For the sequence “HMVDVEMLTTVSDHIEAKLLQGILENHGIPSYSVDEESGEYMRVYMGYSIFGEKIYVRASDLLAAQGYL”, the “soluble fraction (log2)” value is -2.23. For “HMVDWTFPVLVKDVVMMGRYGHMGFLRIPGKKDFESVDNALAKVGMVEYAKQQIGELSGGQR” the value was -0.019; for “HMVDYSMEDSVWNNKKEHVNEWFDANPEHEGRRVIVDGLFAIGDAQPDLRKRHWSSISVVFADLDNSPIG”, -0.327. For “HMVEDPADNQKAADAVIKKISEIGEVTESSENLIKEARASYDALTDNQKELVTNYDVLVQAEAQLENIKD”, the “soluble fraction (log2)” value stood at 0.282.

As to “HMVEEVDYGTFMRMIEEKNIGKVEVRAGEIVFTDKDEKQIYKTGAMEDATLTQRLYESGAEFSKDV”, the “soluble fraction (log2)” value was -0.0507. With “HMVEGVSLVEIYVDENSKYNGKLLSEIPKKENTLVIMIQRGEQVIIPHGNIRLESGDMLVVSKTEI”, the “soluble fraction (log2)” value was -2.71. In the case of “HMVEKNALSEEIEGYVNKYGKDRSSLMPVLQAIQRKHSYINDFAQQEVARLLDIHPVEVFSVISFYSFLH” it was -2.21; in that of “HMVEKRLFPQISDAGKRLDLFLAGALAISRTMVVKIIKDGGVLVNGKAAKASYRLAGDEELLVSYEEP”, -3.48; in that of “HMVEMPEVGVKVRIEVESHNGSTNFEGIVLHPASKGHLTLKLINGYNASYLIEEIRNLEIIDSS”, -1.64. For “HMVENATPEEREALNDIAMEAMGMVKDGKPTSAREFVQSQNLDNDQKILLWSLLDAPTRSALKTAEK” the value was 0.373; for “HMVEPIKAPMPGMVLKILVEPGQQIEKGQGVLILEAMKMENVLKSSAAATVKSIKVSEKSAVEKGAILVEL”, -0.463.

“HMVEQVEISILPGEYSDTISQKLLDAGLIDDKAAFSKYINDTNVDNLIQPGTFTVPKGASYEEVAKILT”: the “soluble fraction (log2)” value came to 0.214. With “HMVERRVRFTVAPGNAGLRLDLFLTAREIGLSRTQVGRAVDEGQIQVNGRPGRAGRKLKTGDVVAIVLPA”, the “soluble fraction (log2)” value was -1.13. Take “HMVESLTDRELQILSLAAKGYTNKAIAVQLGISDRTVQNHLANTFQKLNAESRTEAVMRAVSLGLISA”: the “soluble fraction (log2)” value is -0.542. Regarding “HMVETVQVVGAGQDIMPGSRINYSSLHYITVPRSYFHEDMFAKNNLVVGRIARAYVAKGEPLLAASLMPK”, the “soluble fraction (log2)” value is -2.29. As for “HMVEVPYSEFLKELDAGNVKDVYVSNGESQIQFTKKDQKQWNLSYKTGPIPGDDLVKRLQNADVENFT”, the “soluble fraction (log2)” value was 0.109. For “HMVEVTTDEITRPGAMVSGSVTFSDGVKAIWLIDEYGRPGLEPETPGYQPSESDLSEFEKHLRALLQ” the value was 0.362. For “HMVEVVDAEKLEERLSKVFSAAVLLEIYNENPAHGKEYAYLFTARKNAVEEMIENGQMKRETWEAK” the value was -0.987.

The values above are taken from the domain aggregation screens of Martell et al. (2025).
